T1: Human B7-H3 (human, UniProt Q5ZPR3 29-466)
T1 chain: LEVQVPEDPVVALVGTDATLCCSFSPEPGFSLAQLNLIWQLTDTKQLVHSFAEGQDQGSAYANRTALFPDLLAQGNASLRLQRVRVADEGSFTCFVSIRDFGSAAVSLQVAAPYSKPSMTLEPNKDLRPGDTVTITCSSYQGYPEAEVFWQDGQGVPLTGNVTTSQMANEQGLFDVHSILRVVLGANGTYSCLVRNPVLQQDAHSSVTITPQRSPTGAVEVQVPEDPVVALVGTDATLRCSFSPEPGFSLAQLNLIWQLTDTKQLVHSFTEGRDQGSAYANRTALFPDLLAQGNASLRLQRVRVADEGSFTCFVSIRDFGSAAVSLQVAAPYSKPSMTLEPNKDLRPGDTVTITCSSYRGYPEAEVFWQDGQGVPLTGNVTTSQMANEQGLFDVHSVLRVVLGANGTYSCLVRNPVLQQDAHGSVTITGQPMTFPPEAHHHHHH

T2: Canine B7-H3
T2 chain: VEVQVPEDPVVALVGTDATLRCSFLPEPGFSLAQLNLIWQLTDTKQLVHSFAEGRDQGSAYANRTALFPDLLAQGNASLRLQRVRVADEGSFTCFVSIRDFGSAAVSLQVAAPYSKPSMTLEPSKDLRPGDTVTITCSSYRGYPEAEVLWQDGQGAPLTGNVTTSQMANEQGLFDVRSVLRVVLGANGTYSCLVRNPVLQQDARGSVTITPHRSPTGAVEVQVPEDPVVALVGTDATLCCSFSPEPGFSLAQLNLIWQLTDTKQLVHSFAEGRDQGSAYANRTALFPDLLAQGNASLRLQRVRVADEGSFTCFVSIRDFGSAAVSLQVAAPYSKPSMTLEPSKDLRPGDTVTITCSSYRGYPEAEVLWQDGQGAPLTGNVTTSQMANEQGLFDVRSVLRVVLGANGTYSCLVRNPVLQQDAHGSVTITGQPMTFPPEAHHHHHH

T3: soluble human B7-H3 with 6xHis tag at the carboxy terminus (human, UniProt Q5ZPR3 29-466)
T3 chain: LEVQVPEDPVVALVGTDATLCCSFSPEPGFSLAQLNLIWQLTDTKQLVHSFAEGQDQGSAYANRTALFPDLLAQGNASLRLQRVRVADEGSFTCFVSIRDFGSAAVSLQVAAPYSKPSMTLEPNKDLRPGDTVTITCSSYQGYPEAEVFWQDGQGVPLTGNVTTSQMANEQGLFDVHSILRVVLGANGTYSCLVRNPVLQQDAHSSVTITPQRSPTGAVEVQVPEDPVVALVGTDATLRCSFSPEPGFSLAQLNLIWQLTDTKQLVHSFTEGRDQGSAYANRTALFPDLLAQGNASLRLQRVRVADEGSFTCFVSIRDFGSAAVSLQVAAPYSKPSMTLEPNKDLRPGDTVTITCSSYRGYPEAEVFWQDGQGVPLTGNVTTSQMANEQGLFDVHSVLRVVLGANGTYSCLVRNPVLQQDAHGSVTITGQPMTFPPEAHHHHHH

T4: soluble canine B7-H3 with 6xHis tag at the carboxy terminus
T4 chain: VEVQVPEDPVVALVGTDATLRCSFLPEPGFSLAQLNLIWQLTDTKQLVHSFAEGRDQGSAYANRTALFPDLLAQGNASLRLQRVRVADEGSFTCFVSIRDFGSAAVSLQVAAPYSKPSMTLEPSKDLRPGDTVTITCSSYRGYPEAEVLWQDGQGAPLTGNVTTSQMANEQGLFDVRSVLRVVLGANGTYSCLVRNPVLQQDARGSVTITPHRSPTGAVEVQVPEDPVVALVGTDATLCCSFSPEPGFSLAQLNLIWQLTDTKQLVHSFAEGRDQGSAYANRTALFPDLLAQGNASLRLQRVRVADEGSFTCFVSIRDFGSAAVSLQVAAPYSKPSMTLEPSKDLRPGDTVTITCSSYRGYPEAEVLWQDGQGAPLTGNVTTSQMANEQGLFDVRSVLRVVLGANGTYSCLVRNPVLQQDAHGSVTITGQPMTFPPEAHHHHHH

T5: soluble human B7-H3 with 6xHis tag at the carboxy terminus (human, UniProt Q5ZPR3 29-466)
T5 construct: extracellular domain; also called hB7-H3; human B7H3(4Ig)-His
T5 sequence: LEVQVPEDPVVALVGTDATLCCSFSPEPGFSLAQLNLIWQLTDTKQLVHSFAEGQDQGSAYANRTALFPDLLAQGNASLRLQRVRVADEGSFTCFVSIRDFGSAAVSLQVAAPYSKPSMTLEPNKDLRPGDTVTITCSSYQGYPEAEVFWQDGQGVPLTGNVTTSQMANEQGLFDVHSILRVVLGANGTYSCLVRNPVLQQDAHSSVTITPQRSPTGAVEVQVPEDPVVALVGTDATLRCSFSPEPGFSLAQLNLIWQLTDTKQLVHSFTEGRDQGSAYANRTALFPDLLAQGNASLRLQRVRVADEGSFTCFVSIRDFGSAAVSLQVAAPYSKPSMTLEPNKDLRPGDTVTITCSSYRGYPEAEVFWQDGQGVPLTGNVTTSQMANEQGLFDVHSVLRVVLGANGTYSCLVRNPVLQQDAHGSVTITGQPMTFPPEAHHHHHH

B1: hBRCA84D (antibody, V domains shown)
VH: EVQLVESGGGLVQPGGSLRLSCAASGFTFSSFGMHWVRQAPGKGLEWVAYISSDSSAIYYADTVKGRFTISRDNAKNSLYLQMNSLRDEDTAVYYCGRGRENIYYGSRLDYWGQGTTVTVSS
VL: DIQLTQSPSFLSASVGDRVTITCKASQNVDTNVAWYQQKPGKAPKALIYSASYRYSGVPSRFSGSGSGTDFTLTISSLQPEDFATYYCQQYNNYPFTFGQGTKLEIKR
B2: hBRCA69D (humanized antibody BRCA69D) (antibody, V domains shown)
VH: QVQLVQSGAEVKKPGASVKVSCKASGYTFTSYWMQWVRQAPGQGLEWMGTIYPGDGDTRYTQKFKGRVTITADKSTSTAYMELSSLRSEDTAVYYCARRGIPRLWYFDVWGQGTTVTVSS
VL: DIQMTQSPSSLSASVGDRVTITCRASQDISNYLNWYQQKPGKAPKLLIYYTSRLHSGVPSRFSGSGSGTDFTLTISSLQPEDIATYYCQQGNTLPPTFGGGTKLEIK
notes: Residue limits are my derivation

Tests used:
[1] = biological target: T1, Human B7-H3; test: SPR
[2] = biological target: T2, Canine B7-H3; test: SPR
[3] = biological target: T3, soluble human B7-H3 with 6xHis tag at …; test: SPR
[4] = biological target: T4, soluble canine B7-H3 with 6xHis tag at …; test: SPR
[5] = biological target: T5, soluble human B7-H3 with 6xHis tag at …; test: ELISA and SPR on soluble human B7-H3-His
Procedure: Antibodies hBRCA84D and hBRCA69D were tested in an ELISA for binding to canine B7-H3. Briefly, soluble human B7-H3 and canine B7-H3 were expressed in CHO cells. Each soluble molecule was engineered to express a 6×His tag at the carboxy terminus to aid in purification of the expressed protein. The molecules were purified by nickel column chromatography using standard techniques. ELISA plates were coated with the soluble B7-H3 and allowed to dry. The plates were washed and blocked using standard ELISA techniques. The wells were probed with either hBRCA84D, hBRCA69D or a control hIgG. Secondary detection reagent was added and binding was determined As shown in FIG. 1A (hBRCA84D) and FIG. 1B (hBRCA69D), the antibodies were able to bind to soluble canine B7-H3 (cB7-H3). To determine binding affinity of the hBRCA84D and hBRCA69D antibodies to soluble canine B7-H3, SPR analysis was conducted. As shown in FIGS. 1C and 1D (hBRCA84D) and FIGS. 1E and 1F (BRCA69D) the binding affinities are similar to the binding of the antibodies to soluble human B7-H3 (shown in FIG. 1A and FIG. 1B, respectively).

Binder | Kd [1] | Kd [2] | Kd [3] | Kd [4] | binding result [5]
B1 | 45 nM | 39 nM | – | – | –
B2 | – | – | 8.8 nM | 8.4 nM | binds
